According to patent US20030229005A1 (BIOZYME, published 2003):
Primed or numbered codes have the meaning given here. The star is where a group is joined. Dabcyl′ = CN(C)c1ccc(/N=N/c2ccc(C(=O)*)cc2)cc1; Dnp = O=[N+]([O-])c1ccc(*)c([N+](=O)[O-])c1; fluorescein = fluorescein label

Tests used:
Experiment in all cases: cell-based or functional assay
[1] = target: T1, human Gelatinase-A (human, UniProt P08253 110-660, limits assumed)
T1 sequence (looked up): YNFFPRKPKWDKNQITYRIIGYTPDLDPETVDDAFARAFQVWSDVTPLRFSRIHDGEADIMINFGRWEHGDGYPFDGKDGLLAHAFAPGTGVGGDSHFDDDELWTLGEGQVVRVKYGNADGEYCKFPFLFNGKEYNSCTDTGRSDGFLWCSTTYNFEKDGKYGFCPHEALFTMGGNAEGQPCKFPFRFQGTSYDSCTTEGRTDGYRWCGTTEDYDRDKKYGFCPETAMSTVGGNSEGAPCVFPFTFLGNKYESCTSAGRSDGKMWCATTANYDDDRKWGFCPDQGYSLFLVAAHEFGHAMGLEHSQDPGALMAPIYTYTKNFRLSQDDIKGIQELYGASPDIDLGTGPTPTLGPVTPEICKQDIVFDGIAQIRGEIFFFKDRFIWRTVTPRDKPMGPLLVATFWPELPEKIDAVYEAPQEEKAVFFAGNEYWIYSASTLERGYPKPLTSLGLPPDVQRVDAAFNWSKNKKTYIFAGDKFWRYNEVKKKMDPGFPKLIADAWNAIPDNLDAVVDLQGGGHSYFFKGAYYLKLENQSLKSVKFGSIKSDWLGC

[2] = target: T2, gelatinase B (UniProt P14780 107-707, limits assumed)
[3] = target: T3, collagenase 1 (UniProt P03956 100-469, limits assumed)
T3 sequence (looked up): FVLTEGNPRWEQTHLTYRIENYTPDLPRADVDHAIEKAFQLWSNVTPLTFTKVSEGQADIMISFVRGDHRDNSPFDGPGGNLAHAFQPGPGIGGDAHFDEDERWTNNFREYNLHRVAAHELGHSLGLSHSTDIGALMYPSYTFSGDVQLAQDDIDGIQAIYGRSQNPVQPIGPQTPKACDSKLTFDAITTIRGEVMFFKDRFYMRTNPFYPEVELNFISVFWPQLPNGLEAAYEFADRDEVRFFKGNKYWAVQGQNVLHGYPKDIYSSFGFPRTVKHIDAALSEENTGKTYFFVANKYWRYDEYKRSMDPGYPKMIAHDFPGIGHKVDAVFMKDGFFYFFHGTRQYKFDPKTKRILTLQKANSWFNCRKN

[4] = target: T4, stromelysin 1 (UniProt P08254 100-477, limits assumed)
[5] = target: T1, human Gelatinase-A; remark: listed apart in the source
[6] = target: T2, gelatinase B; remark: listed apart in the source
[7] = target: T3, collagenase 1; remark: listed apart in the source
[8] = target: T4, stromelysin 1; remark: listed apart in the source

T2 sequence (P14780 107-707 limits assumed): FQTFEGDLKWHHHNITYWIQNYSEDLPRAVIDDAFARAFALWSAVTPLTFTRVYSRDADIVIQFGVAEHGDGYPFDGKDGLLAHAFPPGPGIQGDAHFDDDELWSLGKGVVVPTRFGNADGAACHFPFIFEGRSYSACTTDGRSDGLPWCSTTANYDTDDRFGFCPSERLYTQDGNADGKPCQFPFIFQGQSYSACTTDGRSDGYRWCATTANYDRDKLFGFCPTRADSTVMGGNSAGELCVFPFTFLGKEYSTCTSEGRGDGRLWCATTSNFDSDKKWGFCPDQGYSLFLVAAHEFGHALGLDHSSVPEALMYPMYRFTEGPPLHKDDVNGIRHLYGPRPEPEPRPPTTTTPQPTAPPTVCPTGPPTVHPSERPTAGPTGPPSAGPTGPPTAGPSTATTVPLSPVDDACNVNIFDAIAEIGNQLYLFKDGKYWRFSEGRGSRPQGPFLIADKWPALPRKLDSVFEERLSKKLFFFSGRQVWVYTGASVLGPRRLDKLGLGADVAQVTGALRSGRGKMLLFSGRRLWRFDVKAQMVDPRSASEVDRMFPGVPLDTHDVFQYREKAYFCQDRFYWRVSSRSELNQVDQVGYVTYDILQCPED
T4 sequence (P08254 100-477 limits assumed): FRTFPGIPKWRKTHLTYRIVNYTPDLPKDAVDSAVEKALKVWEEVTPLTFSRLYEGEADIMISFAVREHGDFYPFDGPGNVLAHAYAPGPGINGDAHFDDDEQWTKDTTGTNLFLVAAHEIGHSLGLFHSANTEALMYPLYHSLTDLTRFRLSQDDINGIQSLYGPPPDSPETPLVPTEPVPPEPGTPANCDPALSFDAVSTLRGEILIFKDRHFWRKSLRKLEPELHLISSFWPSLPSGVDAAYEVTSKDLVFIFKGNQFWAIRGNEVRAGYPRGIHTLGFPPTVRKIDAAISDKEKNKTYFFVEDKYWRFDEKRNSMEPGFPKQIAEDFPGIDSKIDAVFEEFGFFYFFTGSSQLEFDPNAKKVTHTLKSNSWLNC

B1: Dnp-GPSGIHL-NH2 (peptide)
peptide: Dnp-GPSGIHL-NH2
SMILES: CC[C@H](C)[C@H](NC(=O)CNC(=O)[C@H](CO)NC(=O)[C@@H]1CCCN1C(=O)CNc1ccc([N+](=O)[O-])cc1[N+](=O)[O-])C(=O)N[C@@H](Cc1c[nH]cn1)C(=O)N[C@@H](CC(C)C)C(N)=O
[1]
  Selectivity v. Coll-3: 8 unitless
[2]
  Selectivity v. Coll-3: 6 unitless
[3]
  Selectivity v. Coll-3: 3440 unitless
[4]
  Selectivity v. Coll-3: 2040 unitless

B2: Dnp-GPLSFQG-NH2 (peptide)
peptide: Dnp-GPLSFQG-NH2
SMILES: CC(C)C[C@H](NC(=O)[C@@H]1CCCN1C(=O)CNc1ccc([N+](=O)[O-])cc1[N+](=O)[O-])C(=O)N[C@@H](CO)C(=O)N[C@@H](Cc1ccccc1)C(=O)N[C@@H](CCC(N)=O)C(=O)NCC(N)=O
[1]
  Selectivity v. Coll-3: 21 unitless
[2]
  Selectivity v. Coll-3: 5 unitless
[3]
  Selectivity v. Coll-3: 688 unitless
[4]
  Selectivity v. Coll-3: 191 unitless

B3: Dnp-GPVNLHG-NH2 (peptide)
peptide: Dnp-GPVNLHG-NH2
SMILES: CC(C)C[C@H](NC(=O)[C@H](CC(N)=O)NC(=O)[C@@H](NC(=O)[C@@H]1CCCN1C(=O)CNc1ccc([N+](=O)[O-])cc1[N+](=O)[O-])C(C)C)C(=O)N[C@@H](Cc1c[nH]cn1)C(=O)NCC(N)=O
[1]
  Selectivity v. Coll-3: 25 unitless
[2]
  Selectivity v. Coll-3: 11 unitless
[3]
  Selectivity v. Coll-3: 459 unitless
[4]
  Selectivity v. Coll-3: 1260 unitless

B4: Dnp-GPKGMRG-NH2 (peptide)
peptide: Dnp-GPKGMRG-NH2
SMILES: CSCC[C@H](NC(=O)CNC(=O)[C@H](CCCCN)NC(=O)[C@@H]1CCCN1C(=O)CNc1ccc([N+](=O)[O-])cc1[N+](=O)[O-])C(=O)N[C@@H](CCCNC(=N)N)C(=O)NCC(N)=O
[1]
  Selectivity v. Coll-3: 7 unitless
[2]
  Selectivity v. Coll-3: 3 unitless
[3]
  Selectivity v. Coll-3: 1570 unitless
[4]
  Selectivity v. Coll-3: 13200 unitless

B5: Dnp-GPYGMRA-NH2 (peptide)
peptide: Dnp-GPYGMRA-NH2
SMILES: CSCC[C@H](NC(=O)CNC(=O)[C@H](Cc1ccc(O)cc1)NC(=O)[C@@H]1CCCN1C(=O)CNc1ccc([N+](=O)[O-])cc1[N+](=O)[O-])C(=O)N[C@@H](CCCNC(=N)N)C(=O)N[C@@H](C)C(N)=O
[1]
  Selectivity v. Coll-3: 16 unitless
[2]
  Selectivity v. Coll-3: 6 unitless
[3]
  Selectivity v. Coll-3: 212 unitless
[4]
  Selectivity v. Coll-3: 404 unitless

## {Dabcyl′}-GPHPFRGC(fluorescein)-NH2 [Dabcyl-GPHPFRGC(Flu)-NH2]
[5]
  Selectivity v Col-3: 14.8 unitless
[6]
  Selectivity v Col-3: 2.6 unitless
  Selectivity v Col-3, + Gel: 11.6 unitless
[7]
  Selectivity v Col-3: 87.8 unitless
  Selectivity v Col-3, + Gel: 168 unitless
[8]
  Selectivity v Col-3: 43.9 unitless
  Selectivity v Col-3, + Gel: 53.8 unitless

B6: Dnp-GPLSIQD-NH2 (peptide)
peptide: Dnp-GPLSIQD-NH2
SMILES: CC[C@H](C)[C@H](NC(=O)[C@H](CO)NC(=O)[C@H](CC(C)C)NC(=O)[C@@H]1CCCN1C(=O)CNc1ccc([N+](=O)[O-])cc1[N+](=O)[O-])C(=O)N[C@@H](CCC(N)=O)C(=O)N[C@@H](CC(=O)O)C(N)=O
[1]
  Selectivity v. Coll-3: 65 unitless
[2]
  Selectivity v. Coll-3: 6 unitless
[3]
  Selectivity v. Coll-3: 45 unitless
[4]
  Selectivity v. Coll-3: 590 unitless
